Measurements as given in patent publication US5534410, “TATA-binding protein associated factors drug screens” (The Regents of the University of California, dated 1996).

How the values were obtained:
[1] = target: human TATA-binding protein (hTBP) (human, UniProt P20226); test: Far Western of immunoprecipitated hTFIID complex with 35S-labeled hTBP
radiolabeled nTBP = radiolabeled nTBP (Homo sapiens (Human), UniProt P20226); test: Far Western with radiolabeled probe
[2] = target: acidic activation domain of GAL4 (residues 768-881) (Saccharomyces cerevisiae (strain ATCC …, UniProt P04386)); test: yeast two-hybrid
[3] = target: T1, Drosophila TATA-binding protein (dTBP) (Drosophila, UniProt P20227); test: coimmunoprecipitation of in vitro expressed proteins
T1 sequence: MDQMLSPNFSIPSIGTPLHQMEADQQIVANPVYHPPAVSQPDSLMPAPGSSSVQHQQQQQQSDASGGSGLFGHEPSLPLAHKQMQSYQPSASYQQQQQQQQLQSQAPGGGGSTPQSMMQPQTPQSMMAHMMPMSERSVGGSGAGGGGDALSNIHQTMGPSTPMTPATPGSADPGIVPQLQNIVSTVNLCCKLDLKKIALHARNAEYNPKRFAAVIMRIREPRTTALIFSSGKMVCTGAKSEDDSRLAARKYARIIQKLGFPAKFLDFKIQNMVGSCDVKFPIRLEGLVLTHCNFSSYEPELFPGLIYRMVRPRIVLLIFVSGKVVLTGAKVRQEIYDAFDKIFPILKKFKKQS

[4] = target: control resin that lacked Sp1 (streptavidin-agarose with biotinylated oligonucleotides) (Streptomyces avidinii, UniProt P22629); test: 35S-TAF110 on control DNA affinity resin, SDS-PAGE, autoradiography
[5] = target: Sp1, over-expressed and purified from HeLa cells infected with a vaccinia virus expression vector (Homo sapiens (Human), UniProt P08047); test: in vitro binding to DNA-bound Sp1 resin
[6] = target: T2, GST-NTF-1 fusion protein containing the N-terminal 284 amino acids of NTF-1 (Drosophila, UniProt P13002); test: GST-NTF-1 fusion binding assay
T2 sequence: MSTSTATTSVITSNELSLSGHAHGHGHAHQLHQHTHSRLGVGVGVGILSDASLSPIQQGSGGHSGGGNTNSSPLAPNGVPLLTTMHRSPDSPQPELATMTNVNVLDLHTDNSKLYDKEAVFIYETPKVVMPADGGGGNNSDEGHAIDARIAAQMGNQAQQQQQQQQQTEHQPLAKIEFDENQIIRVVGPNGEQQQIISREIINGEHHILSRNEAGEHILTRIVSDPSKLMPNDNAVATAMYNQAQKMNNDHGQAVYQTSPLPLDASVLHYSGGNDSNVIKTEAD

B1: hTAFII250 (other)
chain: MGPGCDLLLRTAATITAAAIMSDTDSDEDSAGGGPFSLAGFLFGNINGAGQLEGESVLDDECKKHLAGLGALGLGSLITELTANEELTGTDGALVNDEGWVRSTEDAVDYSDINEVAEDESRRYQQTMGSLQPLCHSDYDEDDYDADCEDIDCKLMPPPPPPPGPMKKDKDQDSITGVSENGEGIILPSIIAPSSLASEKVDFSSSSDSESEMGPQEATQAESEDGKLTLPLAGIMQHDATKLLPSVTELFPEFRPGKVLRFLRLFGPGKNVPSVWRSARRKRKKKHRELIQEEQIQEVECSVESEVSQKSLWNYDYAPPPPPEQCLSDDEITMMAPVESKFSQSTGDIDKVTDTKPRVAEWRYGPARLWYDMLGVPEDGSGFDYGFKLRKTEHEPVIKSRMIEEFRKLEENNGTDLLADENFLMVTQLHWEDDIIWDGEDVKHKGTKPQRASLAGWLPSSMTRNAMAYNVQQGFAATLDDDKPWYSIFPIDNEDLVYGRWEDNIIWDAQAMPRLLEPPVLTLDPNDENLILEIPDEKEEATSNSPSKESKKESSLKKSRILLGKTGVIKEEPQQNMSQPEVKDPWNLSNDEYYYPKQQGLRGTFGGNIIQHSIPAVELRQPFFPTHMGPIKLRQFHRPPLKKYSFGALSQPGPHSVQPLLKHIKKKAKMREQERQASGGGEMFFMRTPQDLTGKDGDLILAEYSEENGPLMMQVGMATKIKNYYKRKPGKDPGAPDCKYGETVYCHTSPFLGSLHPGQLLQAFENNLFRAPIYLHKMPETDFLIIRTRQGYYIRELVDIFVVGQQCPLFEVPGPNSKRANTHIRDFLQVFIYRLFWKSKDRPRRIRMEDIKKAFPSHSESSIRKRLKLCADFKRTGMDSNWWVLKSDFRLPTEEEIRAMVSPEQCCAYYSMIAAEQRLKDAGYGEKSFFAPEEENEEDFQMKIDDEVRTAPWNTTRAFIAAMKGKCLLEVTGVADPTGCGEGFSYVKIPNKPTQQKDDKEPQPVKKTVTGTDADLRRLSLKNAKQLLRKFGVPEEEIKKLSRWEVIDVVRTMSTEQARSGEGPMSKFARGSRFSVAEHQERYKEECQRIFDLQNKVLSSTEVLSTDTDSSSAEDSDFEEMGKNIENMLQNKKTSSQLSREREEQERKELQRMLLAAGSAASGNNHRDDDTASVTSLNSSATGRCLKIYRTFRDEEGKEYVRCETVRKPAVIDAYVRIRTTKDEEFIRKFALFDEQHREEMRKERRRIQEQLRRLKRNQEKEKLKGPPEKKPKKMKERPDLKLKCGACGAIGHMRTNKFCPLYYQTNAPPSNPVAMTEEQEEELEKTVIHNDNEELIKVEGTKIVLGKQLIESADEVRRKSLVLKFPKQQLPPKKKRRVGTTVHCDYLNRPHKSIHRRRTDPMVTLSSILESIINDMRDLPNTYPFHTPVNAKVVKDYYKIITRPMDLQTLRENVRKRLYPSREEFREHLELIVKNSATYNGPKHSLTQISQSMLDLCDEKLKEKEDKLARLEKAINPLLDDDDQVAFSFILDNIVTQKMMAVPDSWPFHHPVNKKFVPDYYKVIVNPMDLETIRKNISKHKYQSRESFLDDVNLILANSVKYNGPESQYTKTAQEIVNVCYQTLTEYDEHLTQLEKDICTAKEAALEEAELESLDPMTPGPYTPQPPDLYDTNTSLSMSRDASVFQDESNMSVLDIPSATPEKQVTQEGEDGDGDLADEEEGTVQQPQASVLYEDLLMSEGEDDEEDAGSDEEGDNPFSAIQLSESGSDSDVGSGGIRPKQPRMLQENTRMDMENEESMMSYEGDGGEASHGLEDSNISYGSYEEPDPKSNTQDTSFSSIGGYEVSEEEEDEEEEEQRSGPSVLSQVHLSEDEEDSEDFHSIAGDSDLDSDE
B1: binds [1]; no binding (radiolabeled nTBP).

B2: G4-110 (fl): full-length TAF110 fused to the DNA binding domain of GAL4, G4(1-147) (other)
chain: MNTSQTAAGNRITFTSQPLPNGTISIAGNPGAVISTAQLPNTTTIKTIQAGIGGQHQGLQQVHHVQQQQQSQQQQQQQQQTQSAGQPLLNSMLPAGVVVGMRQQAPSQQQQKNVPTNPLSRVVINSHMAGVRPQSPSITLSTLNTGQTPALLVKTDNGFQLLRVGTTTGPPTVTQTITNTSNNSNTTSTTNHPTTTQIRLQTVPAAASMTNTTATSNIIVNSVASSGYANSSQPPHLTQLNAQAPQLPQITQIQTIPAQQSQQQQVNNVSSAGGTATAVSSTTAATTTQQGNTKEKCRKFLANLIELSTREPKPVEKNVRTLIQELVNANVEPEEFCDRLERLLNASPQPCLIGFLKKSLPLLRQALYTKELVIEGIKPPPQHVLGLAGLSQQLPKIQAQIRPIGPSQTTTIGQTQVRMITPNALGTPRPTIGHTTISKQPPNIRLPTAPRLVNTGGIRTQIPSLQVPGQANIVQIRGPQHAQLQRTGSVQIRATTRPPNSVPTANKLTAVKVGQTQIKAITPSLHPPSLAAISGGPPPTPTLSVLSTLNSASTTTLPIPSLPTVHLPPEALRAREQMQNSLNHNSNHFDAKLVEIKAPSLHPPHMERINASLTPIGAKTMARPPPAINKAIGKKKRDAMEMDAKLNTSSGGAASAANSFFQQSSMSSMYGDDDINDVAAMGGVNLAEESQRILGCTENIGTQIRSCKDEVFLNLPSLQARIRAITSEAGLDEPSQDVAVLISHACQERLKNIVEKLAVIAEHRIDVIKLDPRYEPAKDVRGQIKFLEELDKAEQKRHEELEREMLLRAAKSRSRVEDPEQAKMKARAKEMQRAEMEELRQRDANLTALQAIGPRKKLKLDGETVSSGAGSSGGGVLSSSGSAPTTLRPRIKRVNLRDMLFYMEQEREFCRSSMLFKTYLK
B2: no binding [2].

B3: Drosophila TAF110 (dTAFII110), full-length (other)
chain: B2 chain
B3: no binding [3]; no binding [4].

B4: TAF110 deletion mutant 1-137 (other)
chain: MNTSQTAAGNRITFTSQPLPNGTISIAGNPGAVISTAQLPNTTTIKTIQAGIGGQHQGLQQVHHVQQQQQSQQQQQQQQQTQSAGQPLLNSMLPAGVVVGMRQQAPSQQQQKNVPTNPLSRVVINSHMAGVRPQSPS
B4: no binding [5].

B5: dTAFII80 (other)
chain: MSLEVSNINGGNGTQLSHDKRELLCLLKLIKKYQLKSTEELLCQEANVSSVELSEISESDVQQVLGAVLGAGDANRERKHVQSPAQGHKQSAVTEANAAEELAKFIDDDSFDAQHYEQAYKELRTFVEDSLDIYKHELSMVLYPILVQIYFKILASGLREKAKEFIEKYKCDLDGYYIEGLFNLLLLSKPEELLENDLVVAMEQDKFVIRMSRDSHSLFKRHIQDRRQEVVADIVSKYLHFDTYEGMARNKLQCVATAGSHLGEAKRQDNKMRVYYGLLKEVDFQTLTTPAPAPEEEDDDPDAPDRPKKKKPKKDPLLSKKSKSDPNAPSIDRIPLPELKDSDKLLKLKALREASKRLALSKDQLPSAVFYTVLNSHQGVTCAEISDDSTMLACGFGDSSVRIWSLTPAKLRTLKDADSLRELDKESADINVRMLDDRSGEVTRSLMGHTGPVYRCAFAPEMNLLLSCSEDSTIRLWSLLTWSCVVTYRGHVYPVWDVRFAPHGYYFVSCSYDKTARLWATDSNQALRVFVGHLSDVDCVQFHPNSNYVATGSSDRTVRLWDNMTGQSVRLMTGHKGSVSSLAFSACGRYLASGSVDHNIIIWDLSNGSLVTTLLRHTSTVTTITFSRDGTVLAAAGLDNNLTLWDFHKVTEDYISNHITVSHHQDENDEDVYLMRTFPSKNSPFVSLHFTRRNLLMCVGLFKS
B5: no binding [6].

B6: dTAFII40 (other)
chain: MSAEKSDKAKISAQIKHVPKDAQVIMSILKELNVQEYEPRVVNQLLEFTFRYVTCILDDAKVYANHARKKTIDLDDVRLATEVTLDKSFTGPLERHVLAKVADVRNSMPLPPIKPHCGLRLPPDRYCLTGVNYKLRATNQPKKMTKSAVEGRPLKTVVKPVSSANGPKRPHSVVAKQQVVTIPKPVIKFTTTTTTKTVGSSGGSGGGGGQEVKSESTGAGGDLKMEVDSDAAAVGSIAGASGSGAGSASGGGGGGGSSGVGVAVKREREEEEFEFVTN
B6: no binding [6].
